Test results published in US7119077B1, “Multimeric forms of members of the steroid/thyroid superfamily of receptors with the ultraspiracle receptor” (The Salk Institute for Biological Studies, priority 1990, dated 2006).

Assays:
EcR/usp heterodimer = target: T1, EcR/usp heterodimer (Drosophila melanogaster, UniProt P34021;P20153 P34021:1-878,P20153:1-508); experiment: competition; effective competitor of hsp27-EcRE binding
T1 sequence 1: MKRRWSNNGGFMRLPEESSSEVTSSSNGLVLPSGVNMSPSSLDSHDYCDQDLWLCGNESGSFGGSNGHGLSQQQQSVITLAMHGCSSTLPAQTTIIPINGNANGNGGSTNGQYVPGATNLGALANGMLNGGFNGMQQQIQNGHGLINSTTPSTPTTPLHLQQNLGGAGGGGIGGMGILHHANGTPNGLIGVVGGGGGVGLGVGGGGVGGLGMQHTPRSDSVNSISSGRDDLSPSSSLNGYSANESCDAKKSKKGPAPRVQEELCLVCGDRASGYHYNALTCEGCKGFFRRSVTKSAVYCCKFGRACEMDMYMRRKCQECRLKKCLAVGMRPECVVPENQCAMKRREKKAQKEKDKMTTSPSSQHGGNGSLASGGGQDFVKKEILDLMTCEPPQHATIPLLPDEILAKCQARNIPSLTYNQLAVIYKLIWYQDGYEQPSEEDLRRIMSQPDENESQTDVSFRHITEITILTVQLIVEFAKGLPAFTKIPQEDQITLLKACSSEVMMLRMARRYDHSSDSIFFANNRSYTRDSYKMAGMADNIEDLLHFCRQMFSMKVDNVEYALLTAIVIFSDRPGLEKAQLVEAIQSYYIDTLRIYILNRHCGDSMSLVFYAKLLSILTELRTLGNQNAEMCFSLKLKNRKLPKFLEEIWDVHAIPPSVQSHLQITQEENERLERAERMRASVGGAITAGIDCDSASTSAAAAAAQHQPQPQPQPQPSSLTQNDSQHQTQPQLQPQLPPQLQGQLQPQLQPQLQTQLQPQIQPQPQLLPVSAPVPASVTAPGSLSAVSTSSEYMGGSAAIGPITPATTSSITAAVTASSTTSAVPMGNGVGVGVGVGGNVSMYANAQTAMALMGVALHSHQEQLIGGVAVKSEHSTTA
T1 sequence 2: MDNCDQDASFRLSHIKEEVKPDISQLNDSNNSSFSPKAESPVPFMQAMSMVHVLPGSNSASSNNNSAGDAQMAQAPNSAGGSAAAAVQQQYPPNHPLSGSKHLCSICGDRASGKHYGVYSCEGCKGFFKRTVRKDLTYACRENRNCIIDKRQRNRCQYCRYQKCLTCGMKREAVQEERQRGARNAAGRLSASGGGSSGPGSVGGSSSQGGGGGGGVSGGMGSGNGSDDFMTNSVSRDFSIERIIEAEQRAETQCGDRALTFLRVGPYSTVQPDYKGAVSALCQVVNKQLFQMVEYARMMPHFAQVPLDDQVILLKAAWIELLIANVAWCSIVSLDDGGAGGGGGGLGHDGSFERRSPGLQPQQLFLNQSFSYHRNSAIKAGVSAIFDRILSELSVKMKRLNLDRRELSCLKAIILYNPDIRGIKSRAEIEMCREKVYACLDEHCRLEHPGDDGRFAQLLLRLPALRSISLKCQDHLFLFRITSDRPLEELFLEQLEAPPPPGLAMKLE

usp/TRβ heterodimer = target: T2, usp/TRβ heterodimer (Drosophila melanogaster / Homo sapiens, UniProt P20153;P10828 P20153:1-508,P10828:1-461); experiment: EMSA; usp dependent; usp antibody supershift; conditions: label: 32P
T2 sequence 1: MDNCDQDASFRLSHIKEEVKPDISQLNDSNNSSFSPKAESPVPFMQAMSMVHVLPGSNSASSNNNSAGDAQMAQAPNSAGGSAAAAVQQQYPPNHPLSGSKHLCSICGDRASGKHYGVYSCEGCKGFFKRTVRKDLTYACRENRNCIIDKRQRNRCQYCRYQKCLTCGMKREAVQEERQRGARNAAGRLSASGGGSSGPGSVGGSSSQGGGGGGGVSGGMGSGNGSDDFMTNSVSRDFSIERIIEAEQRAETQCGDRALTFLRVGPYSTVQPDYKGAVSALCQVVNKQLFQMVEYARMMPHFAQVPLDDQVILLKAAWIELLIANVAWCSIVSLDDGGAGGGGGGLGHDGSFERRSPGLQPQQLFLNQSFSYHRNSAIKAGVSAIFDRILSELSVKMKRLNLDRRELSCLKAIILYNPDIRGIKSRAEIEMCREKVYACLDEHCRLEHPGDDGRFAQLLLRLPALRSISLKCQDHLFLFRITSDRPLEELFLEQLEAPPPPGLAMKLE
T2 sequence 2: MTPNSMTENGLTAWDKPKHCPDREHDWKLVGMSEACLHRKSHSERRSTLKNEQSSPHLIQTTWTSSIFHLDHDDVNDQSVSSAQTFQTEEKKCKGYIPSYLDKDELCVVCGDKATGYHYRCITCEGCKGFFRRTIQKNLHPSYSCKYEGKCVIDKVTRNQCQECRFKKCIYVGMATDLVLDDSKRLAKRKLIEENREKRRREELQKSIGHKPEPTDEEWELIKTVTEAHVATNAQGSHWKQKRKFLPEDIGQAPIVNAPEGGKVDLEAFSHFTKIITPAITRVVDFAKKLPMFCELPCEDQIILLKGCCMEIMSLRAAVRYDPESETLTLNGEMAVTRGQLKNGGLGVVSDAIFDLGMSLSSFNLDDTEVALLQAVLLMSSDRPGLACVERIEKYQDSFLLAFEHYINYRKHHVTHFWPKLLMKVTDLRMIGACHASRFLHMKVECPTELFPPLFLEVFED
Experimental: (§1) For gel mobility shift assay, proteins were incubated with binding buffer, which contained 100 mM KCl, 7.5% glycerol, 20 mM HEPES pH 7.5, 2 mM DTT and 0.1% NP-40, on ice for 20 minutes in the presence of 2 μg of nonspecific competitor poly dI-dC and other oligo competitors. Then approximately 1 ng of ^32P-dCTP probe, which was labelled to specific activity about 1-5×10^8 cpm/μg by fill-in reaction with Klenow fragments, was added to the reaction and incubated at room temperature for 20 minutes. Antiserum or preimmune serum was added 10 minutes after the probe was added. The reaction was then loaded into 5% non-denaturing polyacrylamide gel in 0.5×TBE running buffer [1×TBE comprises 0.089 M Tris borate, 0.089 M boric acid and 0.002 M EDTA]. After electrophoresis, the gel was dried for autoradiography.
Using in vitro translated usp protein, interaction of usp with three mammalian nuclear receptors (TRβ, VDR and PPAR) was tested in gel mobility shift assays with the appropriate response element for each of the three receptors as the probes.

ultraspiracle (usp) = target: T3, ultraspiracle (usp) (Drosophila melanogaster, UniProt P20153 SEQ:1-513); experiment: EMSA; usp alone; conditions: label: 32P
T3 sequence: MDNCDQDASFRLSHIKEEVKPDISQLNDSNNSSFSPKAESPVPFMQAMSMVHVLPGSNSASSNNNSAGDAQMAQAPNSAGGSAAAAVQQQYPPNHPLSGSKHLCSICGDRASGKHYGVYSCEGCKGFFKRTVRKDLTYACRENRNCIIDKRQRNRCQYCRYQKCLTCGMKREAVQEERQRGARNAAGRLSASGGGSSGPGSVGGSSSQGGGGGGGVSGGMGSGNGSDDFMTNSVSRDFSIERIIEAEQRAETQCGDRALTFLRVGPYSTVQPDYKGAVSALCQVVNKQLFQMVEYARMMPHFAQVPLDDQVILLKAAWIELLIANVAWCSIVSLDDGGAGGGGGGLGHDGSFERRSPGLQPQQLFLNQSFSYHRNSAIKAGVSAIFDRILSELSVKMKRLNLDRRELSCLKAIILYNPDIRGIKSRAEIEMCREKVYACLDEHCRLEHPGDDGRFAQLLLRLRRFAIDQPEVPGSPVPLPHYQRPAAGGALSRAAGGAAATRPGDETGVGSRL
Experimental: as §1
(§2) Neither in vitro translated usp alone, nor RARα alone, bound to a βRARE probe. However, when the two proteins were incubated together, a prominent retarded complex appeared. This complex comigrated with the complex detected in the RAR and cell extract mixing experiments. […] Either the affinity purified usp antibody, or the RARα, specifically affected the protein/ DNA complex, while preimmune sera had no effect. […]

usp/RARα heterodimer = target: T4, usp/RARα heterodimer (Drosophila melanogaster / Homo sapiens, UniProt P20153;P10276 P20153:1-508,P10276:1-462); experiment: EMSA; prominent complex; affected by usp and RARα antibodies; conditions: label: 32P
T4 sequence 1: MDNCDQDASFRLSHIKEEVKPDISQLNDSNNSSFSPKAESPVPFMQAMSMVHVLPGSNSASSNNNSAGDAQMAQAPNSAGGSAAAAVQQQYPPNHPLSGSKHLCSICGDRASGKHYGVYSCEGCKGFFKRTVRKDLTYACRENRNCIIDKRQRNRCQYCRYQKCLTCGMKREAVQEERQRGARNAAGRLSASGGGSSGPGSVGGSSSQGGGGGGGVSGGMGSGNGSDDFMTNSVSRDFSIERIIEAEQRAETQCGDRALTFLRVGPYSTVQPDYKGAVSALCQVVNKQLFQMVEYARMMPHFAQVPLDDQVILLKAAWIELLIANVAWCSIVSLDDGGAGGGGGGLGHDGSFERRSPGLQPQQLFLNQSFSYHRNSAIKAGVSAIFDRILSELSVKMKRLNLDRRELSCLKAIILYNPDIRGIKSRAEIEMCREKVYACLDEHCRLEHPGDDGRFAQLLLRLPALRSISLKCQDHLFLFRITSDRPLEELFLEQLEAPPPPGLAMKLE
T4 sequence 2: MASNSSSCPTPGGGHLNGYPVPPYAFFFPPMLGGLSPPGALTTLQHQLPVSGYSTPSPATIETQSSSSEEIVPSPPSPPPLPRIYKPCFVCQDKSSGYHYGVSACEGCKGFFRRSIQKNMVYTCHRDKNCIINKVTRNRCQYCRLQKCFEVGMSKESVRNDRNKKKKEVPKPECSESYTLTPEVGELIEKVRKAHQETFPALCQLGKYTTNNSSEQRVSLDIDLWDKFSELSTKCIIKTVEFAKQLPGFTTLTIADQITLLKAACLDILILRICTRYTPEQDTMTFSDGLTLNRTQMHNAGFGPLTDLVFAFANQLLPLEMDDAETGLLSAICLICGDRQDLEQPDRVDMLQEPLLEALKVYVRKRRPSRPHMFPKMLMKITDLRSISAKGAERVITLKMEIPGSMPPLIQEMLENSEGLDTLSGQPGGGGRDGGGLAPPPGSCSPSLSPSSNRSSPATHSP
Experimental: as §1, §2

RARα (human) = target: T5, RARα (human) (Homo sapiens, UniProt P10276 P10276:1-462); experiment: EMSA; RARα alone; conditions: label: 32P
T5 sequence: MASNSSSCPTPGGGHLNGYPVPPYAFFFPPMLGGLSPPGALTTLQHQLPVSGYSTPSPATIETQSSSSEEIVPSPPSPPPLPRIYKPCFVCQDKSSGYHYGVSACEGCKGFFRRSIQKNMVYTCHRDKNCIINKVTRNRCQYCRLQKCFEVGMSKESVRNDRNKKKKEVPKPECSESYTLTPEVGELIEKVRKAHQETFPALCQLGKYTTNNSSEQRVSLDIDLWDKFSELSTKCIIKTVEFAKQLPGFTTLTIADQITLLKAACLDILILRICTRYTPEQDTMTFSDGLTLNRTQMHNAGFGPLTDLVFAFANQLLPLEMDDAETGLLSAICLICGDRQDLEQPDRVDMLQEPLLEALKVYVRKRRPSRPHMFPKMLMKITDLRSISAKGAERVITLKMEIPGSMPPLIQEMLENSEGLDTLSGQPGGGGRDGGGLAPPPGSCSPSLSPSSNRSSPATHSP
Experimental: as §1
In gel mobility shift assays using a ^32P-labelled natural RAR response element—βRARE [see SEQ ID NO:15, see also de The et al., in Nature Vol. 343:177–180 (1990); and Sucov et al., in Proc. Natl. Acad. Sci. USA Vol. 87:5392–5398 (1990)] as the probe, in vitro translated RARα was incubated with probe under binding conditions either alone or with 2 µg of S2 extracts or embryo extracts.
Neither in vitro translated usp alone, nor RARα alone, bound to a βRARE probe. […] This complex comigrated with the complex detected in the RAR and cell extract mixing experiments. […]

B1: 15N-EcRE (dsDNA)
DNA 1: ATGAAGTGCATTGAACCCGCTCGA
DNA 2: TCGAGCGGGTTCAATGCACTTCAT
- binding result (EcR/usp heterodimer): binds

B2: MLV-TRE (DR4) (dsDNA)
DNA 1: GGGTCATTTCAGGTCC
DNA 2: GGACCTGAAATGACCC
- binding result (usp/TRβ heterodimer): binds

B3: βRARE (DR5) (dsDNA)
DNA 1: GGTTCACCGAAAGTTCA
DNA 2: TGAACTTTCGGTGAACC
- binding result (ultraspiracle (usp)): no binding
- binding result (usp/RARα heterodimer): binds
- binding result (RARα (human)): no binding
